From paper PMC3940198

Target: Burkholderia cenocepacia cytosolic carboxypeptidase (BcCCP) (Burkholderia cenocepacia J2315)
Experiment: SEC-MALS; Superdex 200 10/300, 50 mM Tris-HCl, 250 mM NaCl pH 7.5; Wyatt miniDAWN TREOS and Optilab T-rEX detectors

stoichiometry N: 4
Substance: Burkholderia cenocepacia cytosolic carboxypeptidase (BcCCP) (enzyme)
